One molecule from paper PMC10164551, “Structural basis of tRNAPro acceptor stem recognition by a bacterial trans-editing domain” can be followed below.

This series has as its target T1, ProXp-ala K50A (Caulobacter crescentus, UniProt Q9ABV9 1-168, K50A).
T1 sequence: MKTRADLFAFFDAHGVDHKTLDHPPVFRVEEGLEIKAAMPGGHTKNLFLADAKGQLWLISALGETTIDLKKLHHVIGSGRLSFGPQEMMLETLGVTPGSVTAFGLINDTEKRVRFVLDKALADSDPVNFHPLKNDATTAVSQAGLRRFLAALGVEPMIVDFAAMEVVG
Nature of the series: AUC; 1 mM MgCl2; 9.6 μM protein reaches about 36% bound; EMSA: 81 nM duplex annealed in 50 mM sodium phosphate pH 7.5, 150 mM NaCl, 0-114 μM protein, 1 h room temp, 16% native gel in TBE; NMR: same phosphate buffer, 1. To be noted: protein: recombinant; tags: N-terminal His6 removed by thrombin; leaves Gly-Ser-His; hairpin; 7 bp stem, 3' ACCA single-stranded.

Turning to CGGCGAGUUCGCUCGCCGACCA (structured_RNA) [microhelixPro], the binding signal is ~8 fold weaker than WT.
